In data set [1] the target is T1, lambda cI repressor, hexa-histidine-tagged (bacteriophage lambda, UniProt P03034 1-237). Put plainly: filter binding.
Data set [2] has as its target T1, lambda cI repressor, …. Put plainly: filter binding. This is another data set of the same source.

Where two headings read alike, the source gives them in different places.

T1 sequence (P03034 whole entry): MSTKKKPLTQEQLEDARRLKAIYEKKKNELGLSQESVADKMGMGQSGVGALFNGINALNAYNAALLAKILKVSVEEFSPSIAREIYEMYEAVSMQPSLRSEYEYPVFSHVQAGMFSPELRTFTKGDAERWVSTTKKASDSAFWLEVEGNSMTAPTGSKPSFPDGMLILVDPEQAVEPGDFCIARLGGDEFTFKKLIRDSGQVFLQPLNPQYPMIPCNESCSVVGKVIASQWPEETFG

B1: aptamer Tarap (Guu(0/-7)) (structured_RNA)
RNA: GGGAUCGACAGGGCUCCCGUUUGGCUCGGCGAAGAUCGCCUGUACUUUGGAAAGCCGAGUCGU
On to B1, for which the Kd in data set [1] came out at 264 ± 24 nM; in data set [2], 518 ± 96 nM.

By Kd is commonly meant the concentration at which binding is half-saturated.
